Laboratory results as given in paper PMC6171183 (2018).

Target: T1, GST-LjBAK1cyt (Lotus japonicus, UniProt A0A2H4NR37)
T1 chain: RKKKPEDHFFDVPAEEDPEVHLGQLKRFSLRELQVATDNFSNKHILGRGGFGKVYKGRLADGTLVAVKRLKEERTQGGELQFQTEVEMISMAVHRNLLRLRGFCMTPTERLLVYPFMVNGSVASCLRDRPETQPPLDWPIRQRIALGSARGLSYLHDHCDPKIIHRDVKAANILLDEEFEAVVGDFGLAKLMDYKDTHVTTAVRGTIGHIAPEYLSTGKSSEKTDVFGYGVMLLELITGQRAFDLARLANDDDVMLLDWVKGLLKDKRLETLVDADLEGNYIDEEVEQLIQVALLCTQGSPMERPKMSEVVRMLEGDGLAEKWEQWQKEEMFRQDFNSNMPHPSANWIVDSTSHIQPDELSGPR
Assay: GST pull-down

B1: HIS-NFR5cyt (protein)
chain: RRKKALNRTASSAETADKLLSGVSGYVSKPNVYEIDEIMEATKDFSDECKVGESVYKANIEGRVVAVKKIKEGGANEELKILQKVNHGNLVKLMGVSSGYDGNCFLVYEYAENGSLAEWLFSKSSGTPNSLTWSQRISIAVDVAVGLQYMHEHTYPRIIHRDITTSNILLDSNFKAKIANFAMARTSTNPMMPKIDVFAFGVLLIELLTGRKAMTTKENGEVVMLWKDMWEIFDIEENREERIRKWMDPNLESFYHIDNALSLASLAVNCTADKSLSRPSMAEIVLSLSFLTQQSSNPTLERSLTSSGLDVEDDAHIVTSITAR
B1: binds.
